Biological target: T1, MaNCP1-N (N-terminal C2H2 zinc finger cluster of MaNCP1) (Metarhizium acridum (CQMa102)) (UniProt E9E378)
T1 sequence: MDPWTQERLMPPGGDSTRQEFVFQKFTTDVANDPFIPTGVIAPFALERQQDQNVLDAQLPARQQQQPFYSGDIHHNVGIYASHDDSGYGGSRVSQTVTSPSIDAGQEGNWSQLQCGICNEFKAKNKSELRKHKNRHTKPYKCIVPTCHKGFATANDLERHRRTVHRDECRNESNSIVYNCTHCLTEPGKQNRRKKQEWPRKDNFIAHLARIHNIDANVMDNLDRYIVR
Assay: EMSA
Settings: Chemiluminescent EMSA kit (Beyotime), biotin-labeled probe; buffer, salt, pH and temperature not stated

AAAGATCAATAGGAGCTCAGACGACGAGATCGGATGGTGGGGTTCCGGGCAGGCGCAGGCGCGGCGGAAGTCGGCTAGCAGGAGCAACCCAATTGATAAGAGCTCAAGTG (double strand) [MaNmrA promoter probe]
binding: binds

Source: publication PMC9241723
